Target: T1, mutant murine LIGHT (a.a. 79-82, EKLI, deleted), expressed on the cell surface (murine, UniProt Q9QYH9 1-239)
T1 construct: The deletion of a.a; 79-82 is written as two ranges of the natural protein; also called mutant LIGHT; LIGHT^m
T1 sequence: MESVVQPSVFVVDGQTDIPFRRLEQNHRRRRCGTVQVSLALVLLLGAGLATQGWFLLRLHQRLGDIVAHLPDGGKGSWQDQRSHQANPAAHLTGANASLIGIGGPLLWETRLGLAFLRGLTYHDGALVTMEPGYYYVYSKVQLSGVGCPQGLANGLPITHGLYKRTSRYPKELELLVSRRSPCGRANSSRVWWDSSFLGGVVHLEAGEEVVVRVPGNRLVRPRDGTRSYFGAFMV
Assay: flow cytometry and fluorescence microscopy, 293 cells expressing mutant murine LIGHT, stained with murine LTbR-Ig and a labelled anti-Ig
Method: 293 cells, a human kidney cell line, are commonly and easily used for transient expression of gene at relative high level of gene. 293 cells were seeded in 6 well plate and transfected with 2 μg DNA of pAdCMVmLIGHT (wild type murine LIGHT), pAdCMVmmLIGHT (mutant murine LIGHT) or pAdCMVcommLIGHT (codon optimized mutant murine LIGHT by GNENART, Berlin, Germany). Codon modification is to optimize gene codon to allow higher expression of protein without changing protein sequences. Transfection was performed using Lipofectmin 2000 reagent. 48 hours after transfection, cells were detached and incubated with recombinant mLTbR-huFc protein (10 μg/ml) followed by staining with PE conjugated Donkey anti-human IgG antisera. Cells were washed and analyzed by flowcytometry (BD FACSArray Bioanalyzer). Transfection were carried out in triplicates and only one representative result is shown. […] Cells were also examined visually by fluorescent microscopy. Representative results are shown in lower panel. (see FIG. 18). High expression of LIGHT is required to have stronger response. However, protease digestion of LIGHT often reduces its stability on cell surface.

B1: recombinant mLTbR-huFc protein (Fc fusion, mouse, UniProt P50284 31-223, looked up)
chain: QLVPPYRIENQTCWDQDKEYYEPMHDVCCSRCPPGEFVFAVCSRSQDTVCKTCPHNSYNEHWNHLSTCQLCRPCDIVLGFEEVAPCTSDRKAECRCQPGMSCVYLDNECVHCEEERLVLCQPGTEAEVTDEIMDTDVNCVPCKPGHFQNTSSPRARCQPHTRCEIQGLVEAAPGTSYSDTICKNPPEPGAMLL
notes: also called mouse LTbR-Ig; murine LTbR-Ig; not shown: human Fc
B1: binds.

Reference: patent US20090092640A1 (UNIVERSITY OF CHICAGO, published 2009)
